Measurements from patent publication US20250152746A1, “BASE EDITING OF ANGPTL3 AND METHODS OF USING SAME FOR TREATMENT OF DISEASE” (Verve Therapeutics, Inc., priority 2020, published 2025).
In the oligonucleotide strings, read from the 5' end, every base follows the letter of its sugar. An asterisk marks phosphorothioate; unmarked linkages are phosphodiester. Other units and linkages are bracketed, terminal groups are in braces. A string of capitals states the bases alone. m = 2'-O-methyl; r = 2'-OH (RNA)

B1: GA007: structure-guided 2′-OMe heavy guide RNA (gRNA) design, PCSK9 (nucleic acid)
guide: mG*mG*mU*rGrCrUrArGrCrCrUrUrGrCrGrUrUrCrCrGmGrUrUrUrUrArGmAmGmCmUmAmGmAmAmAmUmAmGmCmAmArGrUrUmArAmArAmUrAmAmGmGmCmUmArGrUmCmCrGrUrUrAmUmCrArAmCmUmUmGmAmAmAmAmAmGmUmGrGmCmAmCmCmGmAmGmUmCmGmGmUmGmCmU*mU*mU*mU
B2: GA402 (nucleic acid)
guide: mU*mC*mA*rGrCrUrCrCrArGrGrCrGrGrUrCrCrUrGrGmGrUrUrUrUrArGmAmGmCmUmArGmAmAmAmUmAmGmCmAmArGrUrUmArAmArAmUrAmAmGmGmCmUmArGrUmCmCrGrUrUrAmUmCrArAmCmUmUrGmAmAmAmAmAmGmUmGrGmCmAmCmCmGmAmGmUmCmGmGmUmGmCmU*mU*mU*mUmUrUmU
B3: GA408 (nucleic acid)
guide: mU*mC*mA*rGrCrUrCrCrArGrGrCrGrGrUrCrCrUrGrGmGrUrUrUrUrArGmAmGmCmUmAmGmAmAmAmUmAmGmCmAmArGrUrUmArAmArAmUrAmAmGmGmCmUmArGrUmCmCrGrUrUrAmUmCrArAmCmUmUmGmAmAmAmAmAmGmUmGrGmCmAmCmCmGmAmGmUmCmGmGmUmGmCmU*mU*mU*mUmUrUmU
B4: GA406 (nucleic acid)
guide: TCAGCTCCAGGCGGTCCTGGGTTTTAGAGCTAGAAATAGCAAGTTAAAATAAGGCTAGTCCGTTATCAACTTGAAAAAGTGGCACCGAGTCGGTGCTTTTTTT
modifications: listed as RNA; modified_base 1: mod_base = OTHER; note = 2'-O-Methyl-uridine phosphorothioate; modified_base 2: mod_base = OTHER; note = 2'-O-Methyl-cytidine phosphorothioate; modified_base 3: mod_base = OTHER; note = 2'-O-Methyl-adenosine phosphorothioate;
B5: GA399 (nucleic acid)
guide: mU*mC*mA*rGrCrUrCrCrArGrGrCrGrGrUrCrCrUrGrGmGrUrUrUrUrArGmAmGmCmUmAmGmAmAmAmUmAmGmCmAmArGrUrUmArAmArAmUrAmAmGmGmCmUmArGmUrCmCrGrUrUmAmUmCrArAmCmUmUmGmAmAmAmAmAmGmUmGmGmCmAmCmCmGmAmGmUmCmGmGmUmGmCmU*mU*mU*mUmUmUmU
B6: GA403 (nucleic acid)
guide: mU*mC*mA*rGrCrUrCrCrArGrGrCrGrGrUrCrCrUrGrGmGrUrUrUrUrArGmAmGmCmUmArGmAmAmAmUmAmGmCmAmArGrUrU*mArAmArAmUrAmAmGmGmCmUmArGrUmCmCrGrUrUrAmUmCrArAmCmUmUrGmAmAmAmAmAmGmUmGrGmCmAmCmCmGmAmGmUmCmGmGmUmGmCmU*mU*mU*mUmUrUmU
B7: GA401 (nucleic acid)
guide: mU*mC*mA*rGrCrUrCrCrArGrGrCrGrGrUrCrCrUrGrGmGrUrUrUrUrArGmAmGmCmUmAmGmAmAmAmUmAmGmCmAmArGrUrUmArAmArAmUrAmAmGmGmCmUmArGrUmCmCrGrUrUrAmUmCrArAmCmUmUmGmAmAmAmAmAmGmUmGrGmCmAmCmCmGmAmGmUmCmGmGmUmGmCmU*mU*mU*mUmUmUmU
B8: GA404 (nucleic acid)
guide: mU*mC*mA*rGrCrUrCrCrArGrGrCrGrGrUrCrCrUrGrGmGrUrUrUrUrArGmAmGmCmUmArGmAmAmAmUmAmGmCmAmArGrUrUmArAmArAmUrAmAmGmGmCmUmArGrUmCmCrGrUrU*rAmUmCrArAmCmUmUrGmAmAmAmAmAmGmUmGrGmCmAmCmCmGmAmGmUmCmGmGmUmGmCmU*mU*mU*mUmUrUmU

What follows are molecules tested on PCSK9 gene (assay: PCSK9 gRNA/SpCas9 editing in primary human hepatocytes (Tables 2, 4)). Conditions: SpCas9 mRNA MS002.
Format: cell-based
Description: (§1) In set of experiments, PCSK9 gRNAs were co-transfected with an equivalent amount (1:1 ratio by weight) of in vitro transcribed commercially available SpCas9 mRNA MS002 purchased from TriLink Biotechnologies into primary human hepatocytes at 2500, 500, or 100 ng/RNA/mL and processed as described in detailed methods. Extracted genomic DNA was analyzed for gene editing at the target site with next-generation sequencing of PCR amplicons generated around the target sites. Samples were prepared using the Nextera XT DNA library preparation kit (Illumina) according to the manufacturer's protocol. Briefly, two rounds of PCR were performed first to amplify the region of interest and second to add DNA sequences required for next generation sequencing and sample identification to the initial product. The final amplicon was sequenced on the Illumina MiSeq instrument according to the manufacturer's protocol. A wide range of editing activities (Table 2) were observed. In a second set of experiments, ANGPTL3 gRNAs were co-transfected with an equivalent amount of in vitro transcribed SpCas9 mRNA (1:1 ratio by weight) into primary human hepatocytes and processed and analyzed similarly (Table 3).
PCSK9 gRNAs were co-transfected with an equivalent amount of in vitro transcribed SpCas9 mRNA MS002 (1:1 ratio by weight) into primary human hepatocytes and processed as described in detailed methods. A wide range of editing activities were observed (Table 4; ND=Not determined). The guides with the highest editing activity at five days post transfection were GA001, GA002, GA007, and GA008.
Human primary hepatocytes were transfected at 2500, 1250, 500, and 250 ng/test article/mL with SpCas9 mRNA MS002 and a gRNA targeting PCSK9 with modifications to the tracr. Genomic DNA was processed, sequenced, and analyzed as described in the detailed methods section. GA156 was transfected to serve as a positive control.
Plating, culturing, and transfection of primary hepatocytes. Primary human liver hepatocytes (PHH) and primary cynomolgus liver hepatocytes (PCH) from BioIVT were cultured per the manufacturer's protocol. Briefly, primary human hepatocytes and primary cyno hepatocytes were obtained as frozen aliquots from BioIVT. Four lots of primary human hepatocytes, each derived from a de-identified individual donor, were used for the experiments: STL (main donor) was used for all experiments, including screening experiments and off-target experiments; HLY, JLP, and TLY were used for off-target experiments. The HFG lot of primary cyno hepatocytes were used for experiments. Following the manufacturer's instructions, cells were thawed and rinsed prior to plating in 24-well plates that had been coated with bovine collagen overnight, with a density of approximate 350,000 cells/well in INVITROGRO hepatocyte medium supplemented with TORPEDO antibiotic mix (BioIVT). The cells were thawed and resuspended in hepatocyte thawing medium followed by centrifugation at 100 g for 10 min at 4° C. The supernatant was discarded, and the pelleted cells resuspended in hepatocyte plating medium. Each vial contains approximately 5 million cells that were used for plating one 24-well plate. Plated cells were allowed to settle and adhere for 4-6 h in a tissue culture incubator at 37° C. under 5% CO2 atmosphere. After incubation, cells were checked for monolayer formation. The incubating media were then replaced with fresh hepatocyte maintenance media (complete INVITROGRO medium obtained from BioIVT, the cell line provider). The cells thus became ready for transfection. Each of the gRNAs were co-transfected with an equivalent amount of in vitro transcribed ABE8.8 mRNA (1:1 ratio by molecular weight) into primary human hepatocytes via MessengerMax reagent (Lipofectamine), using various dilutions to assess for editing activity at different concentrations of test article. MessengerMAX from Thermo Fisher is used for transfection. […]

Molecule	editing compared with minimally modified control gRNA GA009
B1	improved editing

Same assay, conditions: modified gRNA, SpCas9 mRNA MS002 1:1 by weight; day 3 post transfection

Molecule	% Editing, day 3 [%]
B1	30

Same assay, conditions: modified gRNA, SpCas9 mRNA MS002 1:1 by weight; day 5 post transfection

Molecule	% Editing, day 5 [%]
B1	27

These molecules were tested on PCSK9 gene (assay: PCSK9 gRNA/SpCas9 editing in primary cynomolgus hepatocytes (Tables 2, 22)). Conditions: SpCas9 mRNA MS002, 625 ng/test article/mL, rep1.
Format: cell-based, cynomolgus monkey
Description: as §1
[…] Genomic DNA was processed, sequenced, and analyzed as described in the detailed methods section. GA266 was transfected independently twice to serve as two positive controls.
Plating, culturing, and transfection of primary hepatocytes. Primary human liver hepatocytes (PHH) and primary cynomolgus liver hepatocytes (PCH) from BioIVT were cultured per the manufacturer's protocol. Briefly, primary human hepatocytes and primary cyno hepatocytes were obtained as frozen aliquots from BioIVT. Four lots of primary human hepatocytes, each derived from a de-identified individual donor, were used for the experiments: STL (main donor) was used for all experiments, including screening experiments and off-target experiments; HLY, JLP, and TLY were used for off-target experiments. The HFG lot of primary cyno hepatocytes were used for experiments. Following the manufacturer's instructions, cells were thawed and rinsed prior to plating in 24-well plates that had been coated with bovine collagen overnight, with a density of approximate 350,000 cells/well in INVITROGRO hepatocyte medium supplemented with TORPEDO antibiotic mix (BioIVT). The cells were thawed and resuspended in hepatocyte thawing medium followed by centrifugation at 100 g for 10 min at 4° C. The supernatant was discarded, and the pelleted cells resuspended in hepatocyte plating medium. Each vial contains approximately 5 million cells that were used for plating one 24-well plate. Plated cells were allowed to settle and adhere for 4-6 h in a tissue culture incubator at 37° C. under 5% CO2 atmosphere. After incubation, cells were checked for monolayer formation. The incubating media were then replaced with fresh hepatocyte maintenance media (complete INVITROGRO medium obtained from BioIVT, the cell line provider). The cells thus became ready for transfection. Each of the gRNAs were co-transfected with an equivalent amount of in vitro transcribed ABE8.8 mRNA (1:1 ratio by molecular weight) into primary human hepatocytes via MessengerMax reagent (Lipofectamine), using various dilutions to assess for editing activity at different concentrations of test article. MessengerMAX from Thermo Fisher is used for transfection. Solution A: desired amount of guide RNA is mixed with 1:1 wt ratio of mRNA in OptiMEM. Solution B: MessengerMAX in OptiMEM. After mixing solutions A and B, the mixture was incubated at room temperature for 20 min. 60 μL of the incubated solution was added dropwise to each cell wells. For protospacer sequences that were a perfect match to the corresponding cynomolgous monkey PCSK9 or ANGPTL3 gene sequence, each gRNA was also co-transfected with an equivalent amount of ABE8.8 mRNA (1:1 ratio by molecular weight) into primary cynomolgous hepatocytes, and followed the same transfection protocol. […]

Molecule	Cynomolgus Primary Hepatocytes-% Editing [%]
B2	35.05
B3	36.7
B4	37.58
B5	37.75
B6	38.28
B7	38.33
B8	31.63

Same assay, conditions: SpCas9 mRNA MS002, 625 ng/test article/mL, rep2

Molecule	Cynomolgus Primary Hepatocytes-% Editing [%]
B2	40.31
B3	37.14
B4	40.31
B5	41.8
B6	35.58
B7	38.77
B8	30.16

Same assay, conditions: SpCas9 mRNA MS002, 1250 ng/test article/mL, rep1

Molecule	Cynomolgus Primary Hepatocytes-% Editing [%]
B2	44.46
B3	47.21
B4	45.11
B5	55.55
B6	50.5
B7	49.12
B8	41.68

Same assay, conditions: SpCas9 mRNA MS002, 1250 ng/test article/mL, rep2

Molecule	Cynomolgus Primary Hepatocytes-% Editing [%]
B2	47.93
B3	49.8
B4	43.68
B5	53.02
B6	47.13
B7	48.83
B8	35.04

Same assay, conditions: SpCas9 mRNA MS002, 2500 ng/test article/mL, rep1

Molecule	Cynomolgus Primary Hepatocytes-% Editing [%]
B2	45.58
B3	50.4
B4	57.17
B5	58.97
B6	52.62
B7	53.74
B8	48.3

Same assay, conditions: SpCas9 mRNA MS002, 2500 ng/test article/mL, rep2

Molecule	Cynomolgus Primary Hepatocytes-% Editing [%]
B2	55.34
B3	46.92
B4	51.45
B5	62.75
B6	55.84
B7	52.79
B8	50.59
